Results reported in publication PMC7076219.

How the values were obtained:
[1] = target: CD44/HCELL (hematopoietic cell E- and/or L-selectin ligand) (human (endogenous in KG1a)) (UniProt P16070); assay: SPR; Biacore T-100, CM5 chip, 25 °C; CD44/HCELL captured from KG1a lysate by immobilised Hermes-3; E-selectin proteins injected in sequential concentrations at 20 ul/min, 90 s each; running buffer 50 mM Tris pH 8.0, 1% Triton X-100, 50 mM NaCl, 1 mM CaCl2; isotype control subtracted; kon calculated from KD and koff
[2] = target: ligands on KG1a cells (human (endogenous in KG1a)); assay: flow cytometry on cells; KG1a cells stained with 10 ug/ml E-selectin protein in HBSS with 5% FBS and 2 mM CaCl2, 4 °C, 20 min; detected by Strep-tag II mAb and PE anti-mouse IgG1
[3] = target: E-S6-IgG (mouse E-selectin extracellular region fused to the Fc region of human IgG1, from silkworm) (mouse | human) (UniProt Q00690); assay: native gel or EMSA; purified E-selectin proteins in native PAGE sample buffer on a 10% TBE gel, Tris-glycine buffer, Coomassie stain

CD44/HCELL (hematopoietic cell E- and/or L-selectin ligand) (human (endogenous in KG1a)), sequence (P16070 other isoform, or with tags, fused parts or gaps): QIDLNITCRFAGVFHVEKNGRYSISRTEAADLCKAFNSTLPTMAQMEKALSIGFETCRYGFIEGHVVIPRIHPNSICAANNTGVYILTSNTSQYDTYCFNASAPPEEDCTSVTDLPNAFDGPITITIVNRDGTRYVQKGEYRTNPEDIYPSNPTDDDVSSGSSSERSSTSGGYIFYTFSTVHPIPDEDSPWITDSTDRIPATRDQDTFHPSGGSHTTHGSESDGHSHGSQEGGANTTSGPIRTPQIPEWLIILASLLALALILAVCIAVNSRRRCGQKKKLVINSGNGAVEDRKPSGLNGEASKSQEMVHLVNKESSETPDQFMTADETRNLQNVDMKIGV

| Kd [1] | kon [1] | percent of the live KG1a population bound [2] | fluorescence signal, fold lower than E-S6 [2] | fluorescence signal (geometric mean) [2] | Substance | stoichiometry N [3] |
| --- | --- | --- | --- | --- | --- | --- |
| 17.2 µM | 4 M⁻¹ s⁻¹ | 43% |  |  | E-S0 (mouse E-selectin lectin and EGF domains, no SCR domains) (domain or fragment) |  |
| 5.68 µM | 30 M⁻¹ s⁻¹ | 76% | 3 fold |  | E-S2 (truncated mouse E-selectin with only the first two SCR domains) (domain or fragment) |  |
| 2.5 µM | 80 M⁻¹ s⁻¹ | 84% | 2 fold | 1690 | E-S2-A28H (E-S2 with the A28H mutation in the lectin domain) (domain or fragment) |  |

| Substance | Kd [1] | kon [1] | percent of the live KG1a population bound [2] | fluorescence signal, fold lower than E-S6 [2] | fluorescence signal (geometric mean) [2] | stoichiometry N [3] |
| --- | --- | --- | --- | --- | --- | --- |
| E-S6-IgG (mouse E-selectin extracellular region fused to the Fc region of human IgG1, from silkworm) (from UniProt Q00690 22-557) (Fc fusion) | 0.17 µM | 950 M⁻¹ s⁻¹ | 96% |  |  | 2 |
